Here are results for 4 substances from US20130323282A1.

Assay [1] addresses CD81 MBP-LEL113-201 (maltose-binding protein linked to the CD81 large extracellular loop, residues 113 to 201), dimeric form (UniProt P60033). The assay can be described thus: SPR; 1:1 model for dimer/trimer, two-state model for monomer. In general terms: Surface plasmon resonance follows binding to a sensor surface in real time, without labels.
Assay [2] has the same target. The experiment in a line: SPR; 1:1 Langmuir model.

UniProt P60033, sequence (P60033 113-201 limits assumed): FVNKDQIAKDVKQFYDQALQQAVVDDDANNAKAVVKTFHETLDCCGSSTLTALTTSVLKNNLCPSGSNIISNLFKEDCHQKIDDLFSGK

For the substance “H77c WT E2661-his, trimer (putative) (from UniProt P27958 384-661) (ligand)”, the fold higher affinity than the monomeric protein in assay [1] was determined as 10 fold.
For “H77c ΔHVR1+2+3 E2661-his, dimer (from UniProt P27958 384-661) (ligand)”, in assay [2], the fold higher affinity than the WT dimer came to 2 fold. The same substance came in with a fold higher affinity than the monomeric protein in assay [1] of 10 fold.
Substance “H77c WT E2661-his, dimer (from UniProt P27958 384-661) (ligand)” came in with a fold higher affinity than the monomeric protein in assay [1] of 10 fold.
On the same count and under the same terms, in the case of “H77c ΔHVR1+2+3 E2661-his, trimer (putative) (from UniProt P27958 384-661) (ligand)” it was 10 fold.
